Like-named read-outs stand apart in the source and are kept apart here. No end group written: not given here.

Experiment [1] has as its target T1, human Y4 receptor (human, UniProt P50391 1-375). Put plainly: 125I-PP displacement.
For experiment [2], the target named is T1, human Y4 receptor. The experiment in a line: 125I-PP displacement. The source holds these as a separate data set.

T1 sequence (P50391 whole entry): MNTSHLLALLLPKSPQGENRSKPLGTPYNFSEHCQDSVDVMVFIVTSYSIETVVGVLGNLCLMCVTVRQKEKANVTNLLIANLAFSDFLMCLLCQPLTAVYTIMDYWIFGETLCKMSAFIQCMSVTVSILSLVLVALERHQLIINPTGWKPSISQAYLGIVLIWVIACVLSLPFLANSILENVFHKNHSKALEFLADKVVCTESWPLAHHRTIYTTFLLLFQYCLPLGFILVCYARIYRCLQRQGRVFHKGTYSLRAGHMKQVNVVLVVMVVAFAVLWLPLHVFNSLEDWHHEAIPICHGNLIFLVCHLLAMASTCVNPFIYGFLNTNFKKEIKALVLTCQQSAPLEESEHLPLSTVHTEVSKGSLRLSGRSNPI

As for APLEPVYPGDDATPEELNHYYSALRRYINMLTRPRY [6841], the half-maximal inhibitory concentration (IC50) with human Y4 receptor [1] was 0.16 nM.

HAPLEPVYPGDNATPEELNHYYASLRRYINMLTRPRY [6859] gave an IC50 with human Y4 receptor [1] of 0.15 nM.

PAPLEPVYPGDNATPEELVKYYASLRRYINMLTRPRY [7110] had an IC50 in the experiment with human Y4 receptor [2] of 0.11 nM.

Molecule HAPLEPVYPGDNATPEELNQYYASLRRYINMLTRPRY [6857] yielded an IC50 in the experiment with human Y4 receptor [1] of 0.22 nM.

As for HAPLEPVYPGDNATPEELVKYYSALRRYINMLTRPRY [6860], the half-maximal inhibitory concentration (IC50) in the experiment with human Y4 receptor [1] turned out to be 0.11 nM.

As for AAPLEPVYPGDNATPEELNHYYSALRRYINMLTRPRY [6840], in the experiment with human Y4 receptor [1], the half-maximal inhibitory concentration (IC50) turned out to be 0.17 nM.

In the experiment with human Y4 receptor [1], APLEPVYPGDNATPEELVKYYIELRRYINMLTRPRY [6851] registered an IC50 of 0.11 nM.

Molecule APLEPFYPGDNATPEEIVKYYSALRRYINMLTRPRY [6844] returned a concentration for half-maximal inhibition (IC50) with human Y4 receptor [1] of 0.19 nM.

On to APLEPVYPGDNATPEELVKYFSALRRYINMLTRPRY [6848], for which the concentration for half-maximal inhibition (IC50) in the experiment with human Y4 receptor [1] turned out to be 0.12 nM.

In turn, APLEPFYPGDNATPEELVKYYSALRRYINMLTRPRY [6843] showed an IC50 in the experiment with human Y4 receptor [1] of 0.17 nM.

In the case of APLEPVYPGDNATPEELVHYYSALRHYINMLTRPRY [7105], in the experiment with human Y4 receptor [2], the IC50 was 0.15 nM.

In the experiment with human Y4 receptor [2], APLEPVYPGDNATPEELVKYYSALRRYINMLTRHRY [7113] yielded an IC50 of 0.084 nM.

Regarding APLEPVYPGDNATPEELVKYFVGLRRYINMLTRPRY [6850], in the experiment with human Y4 receptor [1], the half-maximal inhibitory concentration (IC50) worked out at 0.17 nM.

Consider APLEPVYPGDNATPEELVKYFIELRRYINMLTRPRY [6849], for which, in the experiment with human Y4 receptor [1], the IC50 turned out to be 0.15 nM.

In the experiment with human Y4 receptor [1], PAPLEPVYPGDDATPQQMAQYAAELRRYINMLTRPRY [6865] displayed a concentration for half-maximal inhibition (IC50) of 0.29 nM.

For the molecule PAPLEPFYPGDDATPQQMAHYAAELRRYINMLTRPRY [7145], the IC50 with human Y4 receptor [2] stood at 0.165 nM.

In the case of AAPLEPFYPGDDATPQQMAQYAAALRRYINMLTRPRY [6665], the IC50 with human Y4 receptor [1] was 0.12 nM.

For PAPLEPEYPGDDATPQQMAHYAAELRRYINMLTRPRY [7150], the IC50 in the experiment with human Y4 receptor [2] was 0.169 nM.

In turn, AAPLEPFYPGDDATPQQMAQYAAELRRYINMLTRPRY [6818] had an IC50 in the experiment with human Y4 receptor [1] of 0.15 nM.

AAPLEPVYPGDNATPEQMAQYAADLRKYINMLTRPRY [6668] displayed an IC50 in the experiment with human Y4 receptor [1] of 0.28 nM.

Regarding AAPLEPVYPGDNATPEQMAQYAADLRRYINTLTRPRY [6658], in the experiment with human Y4 receptor [1], the IC50 came to 0.16 nM.

In the experiment with human Y4 receptor [1], AAPLEPFYPGDNATPEQMAQYAAALRRYINLLTRPRY [6811] gave a half-inhibitory concentration (IC50) of 0.2 nM.

For AAPLEPVYPGDNATPEQMAQYAADLRKYINLLTRPRY [6669], in the experiment with human Y4 receptor [1], the IC50 was found to be 0.32 nM.

For CAPLEPVYPGDNATPEQMAQYAADLRRYINMLTRPRY [6836], the IC50 with human Y4 receptor [1] was found to be 0.69 nM.

In the experiment with human Y4 receptor [1], AAPLEPVYPGDDATPQQMAQYAAELRKYINMLTRPRY [6814] had a half-maximal inhibitory concentration (IC50) of 0.22 nM.

Consider AAPLEPVYPGDNATPEQLAQYAADLRRYINLLTRPRY [6657], for which the IC50 with human Y4 receptor [1] was determined as 0.25 nM.

As to APLEPFYPGDNATPEQMAQYAAELRRYINMLTRPRY [6829], the IC50 in the experiment with human Y4 receptor [1] came to 0.2 nM.

With APLEPEYPGDDATPQQMAQYAAELRRYINMLTRPRY [6819], the IC50 with human Y4 receptor [1] is 0.14 nM.

For APLEPFYPGDDATPQQMARYAAELRRYINMLTRPRY [6816], in the experiment with human Y4 receptor [1], the IC50 was determined as 0.15 nM.

On to APLEPFYPGDNATPEQMAQYAAALRKYINMLTRPRY [6809], for which the half-inhibitory concentration (IC50) in the experiment with human Y4 receptor [1] was 0.21 nM.

APLEPVYPGDDATPQQMAQYAAEMRRYINMLTRPRY [6667] gave an IC50 with human Y4 receptor [1] of 0.18 nM.

On to APLEPFYPGDNATPEQMARYAAELRRYINMLTRPRY [6828], for which the half-maximal inhibitory concentration (IC50) with human Y4 receptor [1] turned out to be 0.12 nM.

Molecule APLEPFYPGDNATPEQMAQYAAALRRYINLLTRPRY [6810] showed a concentration for half-maximal inhibition (IC50) with human Y4 receptor [1] of 0.11 nM.

For the molecule APLEPVYPGDDATPQQMARYAAELRRYINMLTRPRY [6815], in the experiment with human Y4 receptor [1], the concentration for half-maximal inhibition (IC50) is 0.13 nM.

For APLEPEYPGDDATPQQMARYAAELRRYINMLTRPRY [6827], the IC50 with human Y4 receptor [1] came out at 0.07 nM.

In turn, APLEPFYPGDDATPQQMAQYAAELRRYINMLTRPRY [6817] came in with a half-maximal inhibitory concentration (IC50) with human Y4 receptor [1] of 0.2 nM.

In the experiment with human Y4 receptor [1], APLEPVYPGDNATPEQMAQYAAELRRYINMLTRPRY [6823] showed a 50% inhibitory concentration (IC50) of 0.13 nM.

In the experiment with human Y4 receptor [1], APLEPVYPGDNATPEQMAQYAADLRRYINMCTRPRY [6835] displayed an IC50 of 0.26 nM.

Turning to APLEPVYPGDDATPQQMAQYAAELRRYINLLTRPRY [6812], the IC50 with human Y4 receptor [1] amounted to 0.24 nM.

In turn, APLEPVYPGDNATPEQMAQYAAALRRYINKLTRPRY [compound of SEQ ID NO:167 (code 7214)] showed a half-maximal inhibitory concentration (IC50) with human Y4 receptor [2] of 0.106 nM.

In the experiment with human Y4 receptor [1], APLEPVYPGDNATPEQMAQYAADLRRYINMLTRPHRY (ends and bridges not checked) [compound of SEQ ID NO:62 (code 6659)] gave a half-inhibitory concentration (IC50) of 0.17 nM.

In the experiment with human Y4 receptor [1], APLEPMYPGDYATPEQMAQYETQLRRYINTLTRPRY [6803] had a half-inhibitory concentration (IC50) of 0.2 nM.

In turn, GAPLEPVYPGDNATPEQMAHYAAELRRYINTLTRPRY [7159] showed a half-inhibitory concentration (IC50) with human Y4 receptor [2] of 0.165 nM.

YYYAPLEPVYPGDYATPEQRAQYETQLRRYINTLTRPRY [6806]: the IC50 in the experiment with human Y4 receptor [1] worked out at 0.19 nM.

For the molecule YYYAPLEPVYPGDNATPEQRAQYAADLRRYINTLTRPRY [6808], the IC50 with human Y4 receptor [1] is 0.15 nM.

In the experiment with human Y4 receptor [1], KPLEPVYPGDNATPEELNRYYASLRRYINMLTRPRY [compound of SEQ ID NO:72 (code 6674)] returned an IC50 of 0.076 nM.

For KPLEPVYPGDNATPEELNRYYASLRRYINMLTRPRY [compound of SEQ ID NO:73 (code 6675)], the IC50 with human Y4 receptor [1] was 0.089 nM.

For APLEPVYPGDNATPEELNRYYASLRKYINMLTRPRY [6673], the IC50 with human Y4 receptor [1] came out at 0.16 nM.

Regarding APLEPVYPGDNATPEELNHYYSALRRYINMLTRPRY [6839], the half-inhibitory concentration (IC50) with human Y4 receptor [1] amounted to 0.12 nM.

For APLEPVYPGDNATPEEINRYYSALRRYINMLTRPRY [7121], the half-maximal inhibitory concentration (IC50) with human Y4 receptor [2] was found to be 0.12 nM.

In the experiment with human Y4 receptor [1], PAPLEPVYPGDNATPEELVKYYSALRRYINMLTRPRY [6861] registered an IC50 of 0.1 nM.

In the case of AAPLEPVYPGDNATPEELVKYYSALRRYINMLTRPRY [6862], in the experiment with human Y4 receptor [1], the IC50 was determined as 0.11 nM.

AAPLEPVYPGDNATPEELVKYYSALRRYINMLTRPRY [6863]: the 50% inhibitory concentration (IC50) in the experiment with human Y4 receptor [1] is 0.16 nM.

The molecule PAPLEPVYPGDNATPEELVKYYSALRRYINMLTRHRY [7114] displayed a concentration for half-maximal inhibition (IC50) in the experiment with human Y4 receptor [2] of 0.166 nM.

PLEPVYPGDDATPQQMAQYAAALRRYINMLTRPRY [6666] registered an IC50 in the experiment with human Y4 receptor [1] of 0.11 nM.

What is called IC50 is the concentration needed to halve the response being measured.

Source of the values: patent US20100279930A1 (published 2010).
